The record followed here is the supplement of paper PMC10724198.

Data set [1] deals with Saccharomyces cerevisiae. The experiment in a line: protein stability index of tFT-peptide fusion in deletion strain of DAS1 (PSI (0-1 scale)); higher = more stable (slower turnover). The protocol:
(§1)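 MPS profiling in S. cerevisiae of two library types built from selected 12-aa C-degron peptides (IN1, IN2, LN1, LN3, VN2, R1-R5, W1-W3, Atg1 and Rpa12 C-termini): saturation mutagenesis libraries and C-terminal +1 capping libraries (13 aa). Each peptide is fused to the C-terminus of a sfGFP-mCherry timer, after a GGGS linker. Cells are FACS-sorted into 8 mCherry/sfGFP bins and sequenced. PSI runs from 0 (unstable) to 1 (stable), measured once in wild type and in the das1Δ or doa10Δ background.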

Data set [2] has as its system Saccharomyces cerevisiae. The experiment in a line: protein stability index of tFT-peptide fusion in wild type (PSI (0-1 scale)); higher = more stable (slower turnover). Particulars: genetic background: wild type. The protocol:
as §1
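Throughout, for protein stability index of tFT-peptide fusion in deletion strain of DAS1: PSI is a weighted mean of each variant's read distribution over the sorted stability bins, computed only for variants having over 10 reads in total.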
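Throughout, for protein stability index of tFT-peptide fusion in wild type: PSI derived as read-weighted mean over the 8 sorting bins, only variants exceeding 10 total reads kept, mCherry placed adjacent to the peptide and sfGFP distal.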

For AIWRVGLWRGAS, the protein stability index in the data set on Saccharomyces cerevisiae [1] came to 0.69; with Saccharomyces cerevisiae [2], 0.405.
The like results for ARTRVGLWRGAS were, in that order, 0.66 and 0.598.
In the same order, the values of ARWRVGFWRGAS are 0.666 and 0.551.
Regarding ARWRVGLLRGAS, the protein stability index worked out at 0.669 in the data set with Saccharomyces cerevisiae [1] and 0.652 with Saccharomyces cerevisiae [2].
The like results for ARWRVGLWRGAQ were, in that order, 0.679 and 0.411.
Take ARWRVGLWRGNS: the figures for the protein stability index in the data set on Saccharomyces cerevisiae [1] and with Saccharomyces cerevisiae [2] were 0.68 and 0.553, respectively.
The like results for ARWRVGYWRGAS were, in that order, 0.691 and 0.478.
For the sequence ARWRVSLWRGAS, the protein stability index with Saccharomyces cerevisiae [1] was 0.687; in the data set on Saccharomyces cerevisiae [2], 0.268.
In the same order, the values of CESCGYKFRTNN are 0.681 and 0.327.
For the sequence CMSCGYKFRTNN, the protein stability index was found to be 0.71 in the data set on Saccharomyces cerevisiae [1] and 0.228 in the data set on Saccharomyces cerevisiae [2].
Take CRGAVGGWRLVG: the protein stability index was determined as 0.647 in the data set on Saccharomyces cerevisiae [1] and 0.163 in the data set on Saccharomyces cerevisiae [2].
The like results for CTCCGYKFRTNN were, in that order, 0.676 and 0.294.
In the same order, the values of CTKCGYKFRTNN are 0.687 and 0.258.
As for CTNCGYKFRTNN, the protein stability index is 0.696 in the data set with Saccharomyces cerevisiae [1] and 0.216 in the data set with Saccharomyces cerevisiae [2].
In the same order, the values of CTSCGAKFRTNN are 0.723 and 0.502.
CTSCGCKFRTNN: the protein stability index with Saccharomyces cerevisiae [1] was found to be 0.694; in the data set on Saccharomyces cerevisiae [2], 0.543.
CTSCGLKFRTNN: the protein stability index stood at 0.691 in the data set with Saccharomyces cerevisiae [1] and 0.34 in the data set with Saccharomyces cerevisiae [2].
Regarding CTSCGVKFRTNN, the values for the protein stability index in the data set with Saccharomyces cerevisiae [1] and in the data set on Saccharomyces cerevisiae [2] were 0.692 and 0.486, respectively.
On to CTSCGYKCRTNN, for which the protein stability index in the data set with Saccharomyces cerevisiae [1] came to 0.661; in the data set on Saccharomyces cerevisiae [2], 0.601.
In the case of CTSCGYKFATNN, the protein stability index came to 0.695 with Saccharomyces cerevisiae [1] and 0.385 with Saccharomyces cerevisiae [2].
In the same order, the values of CTSCGYKFHTNN are 0.713 and 0.429.
The like results for CTSCGYKFRDNN were, in that order, 0.663 and 0.673.
As to CTSCGYKFRQNN, the protein stability index in the data set on Saccharomyces cerevisiae [1] was 0.69; in the data set with Saccharomyces cerevisiae [2], 0.497.
Regarding CTSCGYKFRTCN, the protein stability index was 0.702 in the data set with Saccharomyces cerevisiae [1] and 0.18 with Saccharomyces cerevisiae [2].
In the same order, the values of CTSCGYKFRTNF are 0.712 and 0.417.
Regarding CTSCGYKFRTNNH, the protein stability index in the data set on Saccharomyces cerevisiae [1] came out at 0.706; with Saccharomyces cerevisiae [2] it was 0.687.
For CTSCGYKFRTNNK, the figures for the protein stability index in the data set on Saccharomyces cerevisiae [1] and in the data set with Saccharomyces cerevisiae [2] were 0.682 and 0.669, respectively.
In the same order, the values of CTSCGYKFRTNR are 0.692 and 0.696.
The like results for CTSCGYKFRTNY were, in that order, 0.742 and 0.611.
As for CTSCGYKFRTQN, the protein stability index in the data set on Saccharomyces cerevisiae [1] worked out at 0.663; in the data set with Saccharomyces cerevisiae [2] it was 0.201.
As to CTSCGYKFSTNN, the protein stability index in the data set with Saccharomyces cerevisiae [1] stood at 0.713; in the data set on Saccharomyces cerevisiae [2] it was 0.684.
Turning to CTSCYYKFRTNN, the results for the protein stability index in the data set with Saccharomyces cerevisiae [1] and in the data set with Saccharomyces cerevisiae [2] were 0.639 and 0.199, respectively.
The like results for CTSEGYKFRTNN were, in that order, 0.68 and 0.507.
The like results for CTSQGYKFRTNN were, in that order, 0.678 and 0.251.
Regarding CTTCGYKFRTNN, the protein stability index is 0.677 in the data set on Saccharomyces cerevisiae [1] and 0.267 in the data set on Saccharomyces cerevisiae [2].
The like results for DLIQPLPVQFLN were, in that order, 0.59 and 0.127.
